Experimental data: the DeepSol protein solubility set

Experiment: soluble on expression in E. coli; label from the status in PepcDB or PDB records

MPMLDMIVSRVITLLQGRESRSLRVTQAELAAGLSKTVYLHNAQLILPLPDLAFIQSLVAYDHHHPAVSTVLEAWAYGVRLHLQIHQQLLTALPLRELRRLPVTLTDHMSTPVKLAAAAGLSYASVIHWHDCWVLLEKQTLITALAREVMERQNIKLIWQE
soluble on expression in E. coli: not soluble

MGSDKIHHHHHHMTQTSSPLRNRYEFLLLFDVENGNPNGDPDSGNAPRVDPEDGHGLVSDVALKRRVRNYVQAAGEQIFIQHGTNLNRPIFQAKQASGGGSKGKQDVDAARRWMCEHFYDVRTFGAVMSTGANAGQVRGPVQLTFARSLDPVFAIEASITRGAVAEDIKNAKTLDDFLNWEAQQDEDKLRTMGRKSLIPYGLFATKGFVSAHLAQGTGFSEADLKLLLEALLNMYEHDRSASKGLMSSRRLFVFRHVGTDSDPQQRARQAVLGCAPAHKLLDLGQVIEVRRKDEHKPARALSDYEVTVHLDRLPAGVELLDLDSWDEARYHDGWQSR
soluble on expression in E. coli: not soluble

SNAAEHVRLATTTSTYHSGLLDYLLPQFEKDTGYKVDVIAAGTGKALKMGENGDVDLVMTHAPKAEGTFVEKGYGVLPRKLMYNDFVIVGPKADPAKIKDDESVLDVFKEIANKNATFISRGDDSGTHKKEMGFWAQTKIEPNFGGYRSVGQGMGPTLNMASEMQGYTMSDRGTWLAYQNKLDLEILFQGDEKLFNPYQVILVNPERYPTINYQGAKAFSDWLVNPRGQELINGFRL
soluble on expression in E. coli: soluble

MGSDKIHHHHHHMECHIDLHNTVIQRRVPRDGRAAKHIGIAVFNGFSLLDTVSIVEAFETANRFAEASRHDAPRYVVRLLSSAGGRIASSSSVFVWTDSVEARGHAHDFHALFIAGGTGVHDAARDGRLLAWLRRTHLRSENVLSIAEGQFLLEAAGFASSAGIGSARGLVPRHYFRRETDPATQREVSSPLESALNLIEADLGTEITCKAAASLAPRASTQFTSVLNRNASGSVSDKIRASAQWLEANGHQPISIDRAAGIAAMSERNFLRRFKAEIGVTPSGYLLYVRLDMSCRLLVETALPVDKIARRCGFGDGGQLARLFRKHMGTTPSEYRNSHRQPHDR
soluble on expression in E. coli: not soluble

MGSDKIHHHHHHMAAVALDQYLASVLKSSASDKNEIKLEAGNPDFDLFTIYLENHNTGIHRYRMDVSTILYVAKGTVTIKSAEKVINMRTGNVLLLTEGCKYEVSGQNDDTVLAKLKFAPGFEYRKYFNDFSYKGNRENKIIEQISDSLENEHVLWLKNNQITSASQVMQHIIGGYLDDELFAKALIQAELTAMLIISIRTQRMATPTNLDKTKFEKKSLDNYIDNHFADISLADAAKYFGFNPNYFSNMVKAKTGKSFVDHVGERRMQEARELLAQPDISLKEIISRVGYSSKSFFYKKFNQYYNMTPAAMRKELFRQANINLR
soluble on expression in E. coli: not soluble

SFQRALPRQPVPSAQETVRKYLESVRPVLGDDAFDRATALANDFLRLHAPRLQLYLQLKSWCTSNYVSDWWEEFVYLRSRGSLINSTYYMMDFLYVTPTPLQAARAGNAVHTLLLYRHLLNRQEISPTLLMGMRPLCSAQYERMFNTTRIPGVEKDHLRHLQDSRHVAVFHRGRFFRVGTHSPNGLLSPRALEQQFQDILDDPSPACPLEEHLAALTAAPRSMWAQVRESVKTHAATALEAVEGAAFFVSLDSEPAGLTREDPAASLDAYAHALLAGRGHDRWFDKSFTLIVFSNGKLGLSVEHSWADCPVSGHLWEFTLATECFQLGYATDGHCKGHPDPTLPQPQRLQWDLPEQIQPSISLALRGAKTLSGNIDCHVFPFSHFGKSFIKCCHVSSDSFIQLVLQLAHFRDRGQFCLTYESAMTRLFLEGRTETVRSCTREACQFVRAMDNKETDQHCLALFRVAVDKHQALLKAAMSGQGIDRHLFALYIMSRLLHMQSPFLTQVQSQQWLLSTSQVPVQQTHLIDVHNYPDYVSSGGGFGPAHDHGYGISYIFMGENAITFHISSKKSSTETDSHRLGQHIENALLDVASLFRVGQHFKRQFRGENSDYRYNFLSCKTVDPNTPTSSTNL
soluble on expression in E. coli: soluble

MSSSSSSRIHNGEDVYEKAEEYWSRASQDVNGMLGGFEALHAPDISASKRFIEGLKKKNLFGYFDYALDCGAGIGRVTKHLLMPFFSKVDMEDVVEELITKSDQYIGKHPRIGDKFVEGLQTFAPPERRYDLIWIQWVSGHLVDEDLVDFFKRCAKGLKPGGCIVLKDNVTNHEKRLFDDDDHSWTRTEPELLKAFADSQLDMVSKALQTGFPKEIYPVKMYALKPQHTGFTNN
soluble on expression in E. coli: not soluble

MKIKYFFIPLFSSAILFSACSSIQSDLRNLIKETTGKDFDVSKLIKTSEGRKNLINSLKKSYESKPDETASLLLIAWKQSAEMGEIGFDDIKEGGIYTRDNDPFKLEQKVEYFNMEYKILVMF
soluble on expression in E. coli: soluble

MGSDKIHHHHHHMSPLFTNSEIISRVIKEHFNKNLDHYDGVKFSFMVLNKKNPSQMIIISSYPDEWVNLYKENKYQHIDPVVLASFNKISPFSWEKSLVINTRLQLAKIFDLSKKYDIINGYTFVLHDHGDNLAMLSIIVDNSYPDDVETFIEERKDIFQMLLIEAYEKIISLCKEMIGNKKQLNNKEIFSQRENEILYWASMGKTYLEVAIILGIKTSTVKFHIGNVVKKLGVLNAKHAIRLGVELQLIKPVQ
soluble on expression in E. coli: not soluble

MSLLFNTEDLKAIFQEVSLNPSDRLVCNNSNTIYLWQDNILRVQSDHETQYRSYNVELPFVPEQMVISPSGGLVAFHANSELYVMEVNEQSRLRKHFNTSLGIKKLLWHPLATYGLSFVILHDDSTIRIYDLEDLEPESITVFNRKSRSFGLSDHVESVCDIAFDPTGLTLYLLSSFNYCDIYAIHPCLPKNFSLRSNDTSNVTSRTKNGSLADYMLHKSLSLYNSLDKQLKLISGSDPDVESDYLTLKHDLLKQIQFFDNYKKNDGIDTFTSKAIRNSVPQGPFIIKKFPTALNAKEVTGLTIIPVGERLGLLNLQFIDGTNVVLFSDSEIVMSWSLRSNTTFNNLSVITMFNAKGQCQLLNSSEPKLVFTGDSSTTIMEMPWLEPLAQCIRLHDFSIIDDVKFENKIRTVSGTFLGVLSTLSGDILYNGNSFKVIESNDKSTTQKPINRTDEVKYTYKPSLPTSGKELDMLLTKYKTEANGFISGIPDSLAPLPLKNEGHHHHHH
soluble on expression in E. coli: soluble

MLFQNVSIAGLAHVDAPHTLTSKEINGRLQPTYDRLGIKTDVLGDVAGIHARRLWDQDVQASDAATQAARKALIDAGIGIEKIGLLVNTSVSRDYLEPSTASIVSGNLGVGDHCVTFDVANACLAFINGMDIAARMLERGEIDYALVVDGETANLVYEKTLERMTSPDVTEEEFRNELAALTLGCGAAAMVMARTELVPDAPRYKGGVTRSATEWNKLCRGNLDRMVTDTRLLLIEGIKLAQKTFLAARQVLGWAVDELDQFVIHQVSRPHTAAFVKSFGIDPAKVMTIFGEHGNIGPASVPIVLSKLKELGRLKKGDRIALLGIGSGLNCSMAEVVW
soluble on expression in E. coli: soluble

MRILFVGPPLYGLLYPVLSLAQAFRVNGHEVLIASGGKFAQKAAEAGLVVFDAAPGFDSEAGYRRQEALRKENNIGTKMGNFSFFSEEMTDPLVAFAGQWRPDLIVYPPLGVVGPLIAAKYDIPVVMQTVGFGHTPWHIKGVTKSLSNAYRRHGVSAPPRDLAWIDVTPPSMSILQNDGEPVISMQYVPYNGGAVWEEWWERTPDRKRLLVSLGTVKPMVDGLDLISWVMDSAGEVDAEIILHLPANARSDLRSLPPNVRLVDWLPMGVFLNGADGFIHHGGAGNTLTALHAGIPQIVFGQGADRPVNARAVVERGCGIIPGKSGLTSSMINTFLGNRALREASQEVAAEMAAQPCPTEVAKKLIAMLQHGLEHHHHHH
soluble on expression in E. coli: not soluble

MEPVRIGGPVGAGKTMLVEKLTRAMHRRFSIAVITNDIYTKEDAQFLIKHSVLPEDRIIGVETGGCPHTAIREDASMNFAAIDELKRRHPDVELILIESGGDNLAATFSPELVDFSIYVIDVAQGEKIPRKGGQGMIKSDLLVINKIDLAPYVGASLEVMERDAKAVRGAKPVIFTNLKEEIGLFDVVDWIEKQVLLAGLEE
soluble on expression in E. coli: not soluble

LIFTCDKNKLQESIAIAQKAITGKSTMPILEGLYIEASENIVTIIGSDKDVSIETKFEADVTEPGKLVVDAKIFGEIIRKLPNDKIKIETVSEEAIRITCQKSVFDLLHMNAEDFPSLPKINENMIFSINQGILKNMIKGTSFAIAQDETRPILQGILFEIKDSKLNLVALDGYRLAIRTENIDTNNTINAVIPGKTLNEVAKILEDSEEIVNITFTPNHILFNMGDTKVISRLLEGEFIKYDALLPKEHKLQIEVDKQTLQNGIERASLMAKEGNSNLVKFDITDENIVITSNSQLGKVREEVTIKLQGDEIQIAFNSKYLLDVLKNMEEDKIELRMTSSISPCIIRNKNNDLCEYLVLPVRIAR
soluble on expression in E. coli: soluble

MAITDILSAKDIESALSSCQAADSFNYKSFFSTVGLSSKTPDQIKKVFGILDQDKSGFIEEEELQLFLKNFSSSARVLTSAETKAFLAAGDTDGDGKIGVEEFQSLVKA
soluble on expression in E. coli: soluble

MGSSHHHHHHSSGLVPRGSHMFANDATFEIKKCDLHRLEEGPPVTTVLTREDGLKYYRMMQTVRRMELKADQLYKQKIIRGFCHLCDGQEACCVGLEAGINPTDHLITAYRAHGFTFTRGLSVREILAELTGRKGGCAKGKGGSMHMYAKNFYGGNGIVGAQVPLGAGIALACKYNGKDEVCLTLYGDGAANQGQIFEAYNMAALWKLPCIFICENNRYGMGTSVERAAASTDYYKRGDFIPGLRVDGMDILCVREATRFAAAYCRSGKGPILMELQTYRYHGHSMSDPGVSYRTREEIQEVRSKSDPIMLLKDRMVNSNLASVEELKEIDVEVRKEIEDAAQFATADPEPPLEELGYHIYSSDPPFEVRGANQWIKFKSVS
soluble on expression in E. coli: soluble

MGSDKIHHHHHHMYETFEKLPDGKKEQIIQVCIEEFIENGYQNASTNTIVKRLGISKGVLFLYFKNKKNLYLYLVEYIMEFFIQDYFEEYAGGPVININVFDNLGEYYKELMQKKPELFLFMLQAFVNTPAELKEEIDARHNQAHDSLFRHMNNEGFRPGIDIHLVDDLLHMVSYYVGQLITNDLKGKDLNTIIKDEINKNIVRYAELFAKYVDILKYGVYER
soluble on expression in E. coli: not soluble

MSLRHDVILVLLDGLNHSVARDCMGHLQALCGAGRGQSYRLECELPSLSRPLYECILTGVPPIDSGILHNDVVRLSQEQSLFHYARAAGLSTAAAAYHWVSELYNRAPFDPARDRHTDDSALPIQRGHFYWSDHYPDSHLFADAESLRRRHAPNFMLVHSMNIDDAGHRHGLASPAYRNAARRADALLSEYLHQWLAAGYQVAITADHGMNEDRSHGGILEEEREVPLFVFGDAFSRDDLAQPLQTDLCGTLCEILGAAHDKPVCREEGHHHHHH
soluble on expression in E. coli: not soluble

MDPFGTYKTAISARATDKAILKKSQDGGIISASYIYGLENGLLDGVIVANTEDGFKAAPKIATTPEEVLSAAGTKYTVSPNVSVLKDAVREYALEKVGIVGTPCQVRAIRKLMKYPMGFRHTDSKIALVMGIFCMENFPYEGMKAIVEQYAGIRMNDVLKTDIGKGKFWVYSKSGDVKAVPLKDTHMYEQKSCHVCMDYTAELADISTGSVGSPDGWSTIFVRTAKGEEYLNKMVEAGALETKPIDDVKPGLDLVQKLALQKKEKNDKEIAHRKEIGLPVPYLEHHHHHH
soluble on expression in E. coli: not soluble

MIAGGFGAGKTTAVGAVSEITPLSTEEYLTEASADVDSLAGLASKRTTTVAFDFGRLSLPDAPMPLELFLFGTPGQDRFVDLWYDLSRGAVGAVVLVDTRRLESSFTPVSFFEDIGLPFVVAVNRFDGAHRYHPEQVRAALELPAAVPVVTCDAREPNHVAGVLLALVDHAVNCAATTNRAGHTPSTTLQDALEHHHHHH
soluble on expression in E. coli: not soluble
